The text below walks through data of PMC9356269, “A purified energy-converting hydrogenase from Thermoanaerobacter kivui demonstrates coupled H^+-translocation and reduction in vitro” (The Journal of Biological Chemistry, 2022).

In test [1] the target is T1, Ech2 complex (energy-converting hydrogenase Ech2) (Thermoanaerobacter kivui, UniProt A0A097ATF1+A0A097ATH3+A0A097ATI1).
T1 construct: gene ech2A1; eight-subunit complex from T. kivui membranes (DDM), plasmid-encoded Ech2C with C-terminal 10x His tag, other subunits native; predicted monomer 248 kDa, active bands ~450 and ~520 kDa (dimer); with Energy-converting hydrogenase Ech2 subunit Ech2C; Energy-converting hydrogenase Ech2 subunit Ech2D; Energy-converting hydrogenase Ech2 subunit Ech2E; Energy-converting hydrogenase Ech2 subunit Ech2F; HycB2 (4Fe-4S ferredoxin-type subunit)
Kind of test: Fd2-:H+ oxidoreductase activity, H2 by gas chromatography. In kind it is biochemical. Conditions: read-out: 50% inhibition.

The target of test [2] is Ech2 complex (energy-converting hydrogenase 2) of T. kivui, His-tagged on Ech2C (Thermoanaerobacter kivui). Kind of test: native gel or EMSA; purified Ech2 on nondenaturing PAGE with size standards, Coomassie stain and in-gel hydrogenase activity assay; bands of about 230, 450 and 520 kDa, only the 450 and 520 kDa bands active. (In general: In EMSA bound probe runs differently from free probe, usually more slowly.)

The target is the same in test [3].

In the case of `C(=NC1CCCCC1)=NC1CCCCC1` [DCCD], the IC50 in test [1] was determined as 9.9 ± 0.4 µM.

A word on the stoichiometry N: it is the number of molecules, sites or subunits per partner or assembly. In test [2], “Ech2 complex (energy-converting hydrogenase 2) of T. kivui, His-tagged on Ech2C, A0A097ATI1 1-625; A0A097ATF1 1-380; A0A097ATH3 1-311; A0A097ATJ2 1-141; A0A097ATJ6 1-120; A0A097ATH9 1-364; A0A097ATH4 1-156; A0A097ATH8 1-132” came in with a stoichiometry N of 2.

B1: ferredoxin (Fd) isolated from Clostridium pasteurianum (natural protein)
chain: MAYKIADSCVSCGACASECPVNAISQGDSIFVIDADTCIDCGNCANVCPVGAPVQE
Regarding B1, in test [3], the Km for Fd of the H2:Fd oxidoreductase reaction of purified Ech2 (0 to 90 μM Fd) stood at 17.8 µM.
